Assays:
Type in all cases: cell-based, human
[1] = test system: AICDA, BLIMP-1, RAG expression; assay: Quantitative RT-PCR of AICDA, BLIMP-1 and RAG mRNA in immunized PBMCs
Protocol: Quantitative RT-PCR was carried out with a BioRad iCycler and the 2-(ΔΔCT) method was used to calculate relative mRNA expression levels normalized to GAPDH.
AID is known to be involved in B cell affinity maturation by inducing hyper-mutation in antibody genes. Expression of BLIMP-1 represents the proliferation and differentiation of active B cell. To test the effect of TLR agonists on the expression of AID, mRNA levels of AICDA (that encoding AID) after treatment with the synthesized TLR7/8 agonist (500 nM), in comparison with that of CD40L (55 nM), was determined by quantitative RT-PCR. PBMCs were collected from two different donors (see FIG. 8, donor 3 and donor 4). […]
To test the effect of TLR7 agonist imiquimod on the expression of AICDA and BLIMP-1, mRNA levels of AICDA and BLIMP-1 after IVI in the presence of the TLR7 agonist imiquimod (500 nM), was determined by quantitative RT-PCR, in comparison with that of CD40L (FIG. 9). […]
AICDA, RAG gene expression of the harvested cells was also measured by RT-qPCR analysis respectively. […] Data are expressed as means±SEM of triplicate independent samples (****P<0.0001, **P<0.001, by 1-way ANOVA with Sidak's multiple comparisons test).

PBMCs = assay: In vitro immunization (IVI) of PBMCs, antigen-specific IgG/IgM production by ELISA; conditions: for IgG production compared with Basic alone / IgM production compared with Basic alone: FIG. 19; for antigen specificity of antibody production (anti-OVA IgG vs anti-OVA IgM and anti-BSA IgG): basic + OVA, 14 days, FIGS. 20A-20C
Protocol: PBMCs were washed and diluted with PIV culture medium. Cell density was adjusted to 1*10^^7 cells/ml, treateder with 0.25 mM LLME for about 20 min. Discarded supernatant, and re-suspended cell with PIV culture medium. Adjusted cell density to 9*10^^5 cells/ml. […] Cultured the tissue for 7 days at 37° C., 5% CO2. Changed half of the medium and added factor cocktail on day 7. Cultured the cells for 7-21 days at 37° C., 5% CO2. Collected the supernatant on day 7, day 14, or day 21 for analysis of antibody production by ELISA, whereas the pellets are used for testing gene expression by PCR or RT-PCR. The collected cells were also tested in ELISpot assay for FACS analysis.
Exemplary IVI steps with addition of stimulate factors: • 1. Prepared PBMCs and treat them with LLME. • 2. […] Collected the cells and plate them into 96-well plate at a density of 6*10^4/well. • 4. […] The IgG and IgM level was examined with ELISA assay.
After day7 or day14 with addition of cytokines or antibody-enhancing composition and antigens, supernatants were harvested and added to antigen OVA-coated plates. After 2 hr incubation, a HRP-conjugated anti-human IgG or anti-human IgM was added, the amount of antigen-specific antibody was measured using TMB as substrate. The data represents the mean of 2 replicates; error bars represent SD. One representative data of 3 separate experiments is shown.
Plates were coated with antigen at 5 μg/ml overnight at 4° C. and washed them in PBST (containing 0.5% Tween-20). The plates were blocked with 5% BSA before addition of cell culture supernatants and horseradish peroxidase (HRP)-conjugated detection antibodies (dilutions: 1 in 2,500 for HRP-conjugated IgG-specific antibody (Jackson) and HRP-conjugated IgM-specific antibody. TMB substrates solution was used for measurement. […]
To further test effects of other cytokine or molecules on antibody production, a synthesized TLR7/8 agonist (50 nM and 500 nM) was added to the IVI system in the presence of antigen OVA (2 μg/ml).
An exemplary cytokine, IL1β, was tested. PBMCs were incubated in vitro with OVA, basic, and either some of the known stimulating factors ICOS, CD40L, TLR7/8 agonists or IL1β (in different doses) (1.5*10^^5 cell/well, 96 well plate). After 7 or 14 days, supernatants were harvested, and IgG/IgM antibody production was measured by ELISA assay.

[2] = test system: GC like B cells within PBMCs; assay: FACS analysis of GC like B cells (CD3-CD19+GL7+Fas+) after in vitro immunization
Protocol: We analyzed stained cells on an […] (BD) and processed flow cytometry data with FlowJo software (Tree Star). PBMCs were collected into Snap-lock microtubes. For analysis of T cells or B cells, tubes were kept at 4° C. unless mentioned otherwise. After centrifugation, cells were washed and resuspended in PBS. For analysis of T follicular helper cells, PBMCs were stained with antibodies of CD3−FITC (BD), CD4− PerCP−Cy™5.5 (BD), CXCR5−PE/Cy7 (Biolegend), and CD45RA-PE(eBioscience), respectively. T follicular helper cells were identified with CD3^+CD4^+CXCR5^+CD45RA^−. For analysis of GC like B-cells, PBMC was stained with antibodies of CD19-PE (eBioscience), GL7− Alexa Fluor 488 (eBioscience), Fas-APC (eBioscience). GC like B-cells were defined as CD19^+GL7^+Fas^+.
After FACS sorting, GC like B cells are gated as CD3^−, CD19^+, GL7^+, Fas^+ cells. Numbers within the gates represent the GC like B cells of different groups. […] The ratio of GC like B cells is about 85.25% (FIG. 5B). Similarly, the PBMCs treated with ICOS. The ratio of GC like B cells is about 90.42% (FIG. 5C).
In the same way, PBMCs were incubated in vitro with OVA, basic, and CCL1 (1 μg/ml). After 7 days, cells were harvested, and single cell is sorting with CD19, CD3, GL7, FAS antibody as specific markers, dead cells are excluded by staining with DAPI. GC like B cells are gated as CD3−CD19+GL7+Fas+ cells. […]

For CC(C)Cn1cnc2c(N)nc3ccccc3c21 [imiquimod, reference compound], the “expression of AICDA and BLIMP-1 compared with CD40L” value ([1]; OVA, basic, agonist 500 nM, FIG. 8 and FIG. 9) was “far superior to CD40L”.

In the case of CXCL2: Human C-X-C motif chemokine 2, the “IgG production compared with Basic alone” value (PBMCs; in vitro for 14 days, OVA) is reported as “better than Basic alone”.

In the case of CXCL5: Human C-X-C motif chemokine 5, the “IgG production compared with known stimulating factors” value (PBMCs; CXCL5 20 ng/ml, in vitro for 14 days) is reported as “inferior to TLR7/8 agonist but better than ICOS and CD40L”, the “antigen specificity of antibody production (anti-OVA IgG vs anti-OVA IgM and anti-BSA IgG)” value (PBMCs) is reported as “similarly stimulate the activation of OVA-specific B cells” and the “IgG production, dose relation” value (PBMCs; in vitro for 14 days, OVA, basic, FIG. 18) is reported as “dose-dependent”.

For “IL1β: Human interleukin-1 beta, adipose tissue-derived secretory protein”, the “antigen specificity of antibody production (anti-OVA IgG vs anti-OVA IgM and anti-BSA IgG)” value (PBMCs) was “promotes generation of anti-OVA IgG in a high level”.

“IL21: interleukin-21, cytokine; part of 'basic' medium at 50 ng/ml” was tested, and the “production of anti-TrkA antibody IgG / IgM by individual stimulants” value (PBMCs; antigen TrkA, individual stimulants, day 7, IL21 50 ng/ml) was “stimulated the production of antibody IgG but not IgM”.

B1: CD40L: CD154, CD40 Ligand protein (protein, UniProt P29965 113-261, looked up)
CD40 ligand, soluble form: MQKGDQNPQIAAHVISEASSKTTSVLQWAEKGYYTMSNNLVTLENGKQLTVKRQGLYYIYAQVTFCSNREASSQAPFIASLCLKSPGRFERILLRAANTHSSAKPCGQQSIHLGGVFELQPGASVFVNVTDPSQVSHGTGFTSFGLLKL
B1 was tested, and the “regulation of IgG and IgM responses with dose” value (PBMCs; ICOS 24-100 nM, CD40L 10-55 nM, TLR7/8 agonist 0.1-500 nM, OVA, IL2, IL21) was “dose-dependent manner”, the “IgG production on co-stimulation with IL2 and IL21” value (PBMCs; OVA 4 ug/ml, IL2 10 ng/ml, IL21 50 ng/ml, 24 nM ICOS, 55 nM CD40L, 500 nM TLR7/8 agonist, 7 or 14 days) was “synergistic, complimentary effects on enhanced IgG production” and the “ratio of GC like B cells” value ([2]; antigen OVA 2 μg/ml, IL2 10 ng/ml + IL21 50 ng/ml (basic), sorted on day 14) was “about 85.25%”.

B2: IL27: Recombinant Human Interleukin 27 (protein, UniProt Q8NEV9 29-243; Q14213 21-229, looked up)
Interleukin-27 subunit alpha: FPRPPGRPQLSLQELRREFTVSLHLARKLLSEVRGQAHRFAESHLPGVNLYLLPLGEQLPDVSLTFQAWRRLSDPERLCFISTTLQPFHALLGGLGTQGRWTNMERMQLWAMRLDLRDLQRHLRFQVLAAGFNLPEEEEEEEEEEEEERKGLLPGALGSALQGPAQVSWPQLLSTYRLLHSLELVLSRAVRELLLLSKAGHSVWPLGFPTLSPQP
Interleukin-27 subunit beta: RKGPPAALTLPRVQCRASRYPIAVDCSWTLPPAPNSTSPVSFIATYRLGMAARGHSWPCLQQTPTSTSCTITDVQLFSMAPYVLNVTAVHPWGSSSSFVPFITEHIIKPDPPEGVRLSPLAERQLQVQWEPPGSWPFPEIFSLKYWIRYKRQGAARFHRVGPIEATSFILRAVRPRARYYVQVAAQDLTDYGELSDWSLPATATMSLGK
B2 was tested, and the “IgG production compared with Basic alone” value (PBMCs; in vitro for 14 days, OVA) was “better than Basic alone” and the “IgM production compared with Basic alone” value (PBMCs; in vitro for 14 days, OVA) was “better than Basic alone”.

B3: CCL1: Recombinant Human C-C motif chemokine 1 (protein, UniProt P22362 24-96, looked up)
C-C motif chemokine 1: KSMQVPFSRCCFSFAEQEIPLRAILCYRNTSSICSNEGLIFKLKRGKEACALDTVGWVQRHRKMLRHCPSKRK
In the case of B3, the “antigen-specific antibody production, CCL1 plus TLR7/8 agonists and basic vs TLR7/8 agonists and basic only” value (PBMCs; R848 1 μg/ml, 7 days, FIG. 25A) is reported as “significantly increased”, the “GL7+FAS+ cell ratio, CCL1 plus TLR7/8 and basic vs TLR7/8 and basic only” value ([2]; 7 days, FIG. 25D) is reported as “increases” and the “AICDA and RAG gene expression, CCL1 plus TLR7/8 and basic vs TLR7/8 and basic only” value ([1]; 7 days, RT-qPCR, FIGS. 25B-25C) is reported as “increased expression level of AICDA and RAG genes”.

B4: CCL4: Recombinant Human C-C motif chemokine 4 (protein, UniProt P13236 24-92, looked up)
C-C motif chemokine 4: APMGSDPPTACCFSYTARKLPRNFVVDYYETSSLCSQPAVVFQTKRSKQVCADPSESWVQEYVYDLELN
With B4 the “IgG production compared with Basic alone” value (PBMCs; in vitro for 14 days, OVA) was “better than Basic alone” and the “IgM production compared with Basic alone” value (PBMCs; in vitro for 14 days, OVA) was “better than Basic alone”.

B5: CXCL16: Mouse chemokine (C-X-C motif) ligand 16 (protein, UniProt Q8BSU2 27-246, looked up)
C-X-C motif chemokine 16: NQGSVAGSCSCDRTISSGTQIPQGTLDHIRKYLKAFHRCPFFIRFQLQSKSVCGGSQDQWVRELVDCFERKECGTGHGKSFHHQKHLPQASTQTPEAAEGTPSDTSTPAHSQSTQHSTLPSGALSLNKEHTQPWEMTTLPSGYGLEARPEAEANEKQQDDRQQEAPGAGASTPAWVPVLSLLAIVFFLTAAMAYVLCNRRATQQNSAGLQLWYTPVEPRP
With B5 the “IgG production compared with Basic alone” value (PBMCs; in vitro for 14 days, OVA) was “better than Basic alone” and the “IgM production compared with Basic alone” value (PBMCs; in vitro for 14 days, OVA) was “better than Basic alone”.

B6: CXCL13: Recombinant Human chemokine (C-X-C motif) ligand 13 (protein, UniProt O43927 23-109, looked up)
C-X-C motif chemokine 13: VLEVYYTSLRCRCVQESSVFIPRRFIDRIQILPRGNGCPRKEIIVWKKNKSIVCVDPQAEWIQRMMEVLRKRSSSTLPVPVFKRKIP
In the case of B6, the “IgM production compared with Basic alone” value (PBMCs; in vitro for 14 days, OVA) is reported as “better than Basic alone”.

B7: CCL8: Human chemokine (C-C motif) ligand 8 (protein, UniProt P80075 24-99, looked up)
C-C motif chemokine 8: QPDSVSIPITCCFNVINRKIPIQRLESYTRITNIQCPKEAVIFKTKRGKEVCADPKERWVRDSMKHLDQIFQNLKP
With B7 the “IgG production compared with known stimulating factors” value (PBMCs; OVA, basic, FIG. 17) was “inferior to TLR7/8 agonist but better than ICOS and CD40L” and the “antigen specificity of antibody production (anti-OVA IgG vs anti-OVA IgM and anti-BSA IgG)” value (PBMCs) was “similarly stimulate the activation of OVA-specific B cells”.

— patent publication US20240043514A1, “NOVEL METHOD FOR PRODUCING ANTIBODIES” (TSINGHUA UNIVERSITY, priority 2017, published 2024)
